Numbering of substitutions follows the chain as printed. Names and notes keep the numbering of the source.
T1: human NgR1 alanine mutant 163 (human, UniProt Q9BZR6 27-473)
T1 sequence: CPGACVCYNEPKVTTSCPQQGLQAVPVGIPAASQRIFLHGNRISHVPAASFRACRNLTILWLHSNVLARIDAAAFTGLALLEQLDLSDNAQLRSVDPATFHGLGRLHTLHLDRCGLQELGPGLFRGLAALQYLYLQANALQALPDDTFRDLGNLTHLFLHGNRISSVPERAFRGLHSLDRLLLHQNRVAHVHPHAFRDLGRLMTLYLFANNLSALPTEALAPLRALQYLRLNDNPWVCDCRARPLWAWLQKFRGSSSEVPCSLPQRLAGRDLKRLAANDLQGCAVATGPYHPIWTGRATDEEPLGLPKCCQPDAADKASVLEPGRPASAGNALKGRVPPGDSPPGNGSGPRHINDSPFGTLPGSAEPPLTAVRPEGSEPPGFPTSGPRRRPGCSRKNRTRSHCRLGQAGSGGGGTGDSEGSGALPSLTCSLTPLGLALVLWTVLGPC

T2: human NgR1 alanine mutant 133, 136 (human, UniProt Q9BZR6 27-473)
T2 sequence: T1 sequence with H107A, H110A, A137D

T3: human NgR1 alanine mutant 158, 160 (human, UniProt Q9BZR6 27-473)
T3 sequence: T1 sequence with Y132A, Y134A, A137D

T4: human NgR1 alanine mutant 182, 186 (human, UniProt Q9BZR6 27-473)
T4 sequence: T1 sequence with A137D, H156A, H160A

T5: human NgR1 alanine mutant 232, 234 (human, UniProt Q9BZR6 27-473)
T5 sequence: T1 sequence with A137D, Y206A, F208A

T6: human NgR1 alanine mutant 82, 179 (human, UniProt Q9BZR6 27-473)
T6 sequence: T1 sequence with N56A, A137D, N153A

T7: NgR expressed on COS-7 cells (species not stated)
T7 chain: T1 sequence with A137D

T8: AP-fused Amino-Nogo fragment B (a.a. 622-1018) (human, UniProt Q9NQC3 622-1018)
T8 construct: also called AmNg B; AP-AmNgB; not shown: alkaline phosphatase (AP), vector pcAP6
T8 sequence: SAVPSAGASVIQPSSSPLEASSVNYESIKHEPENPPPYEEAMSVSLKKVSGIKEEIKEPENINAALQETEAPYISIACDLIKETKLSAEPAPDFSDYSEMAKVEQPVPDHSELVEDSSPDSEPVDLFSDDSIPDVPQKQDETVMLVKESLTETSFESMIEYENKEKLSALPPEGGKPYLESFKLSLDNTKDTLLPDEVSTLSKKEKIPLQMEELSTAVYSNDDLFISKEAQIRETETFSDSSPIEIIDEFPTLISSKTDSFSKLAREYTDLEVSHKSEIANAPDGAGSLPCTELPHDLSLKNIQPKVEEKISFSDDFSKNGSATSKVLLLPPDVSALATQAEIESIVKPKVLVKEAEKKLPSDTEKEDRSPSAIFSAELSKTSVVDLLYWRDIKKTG

T9: AP-fused Amino-Nogo fragment B4 (a.a. 877-1018) (human, UniProt Q9NQC3 877-1018)
T9 construct: also called AmNg B4; AP-B4; not shown: alkaline phosphatase (AP), vector pcAP6
T9 sequence: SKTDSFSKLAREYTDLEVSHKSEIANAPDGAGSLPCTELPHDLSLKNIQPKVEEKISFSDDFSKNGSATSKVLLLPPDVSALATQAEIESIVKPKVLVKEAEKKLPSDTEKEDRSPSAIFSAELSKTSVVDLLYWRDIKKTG

T10: AP-fused Amino-Nogo fragment B4C (a.a. 950-1018) (human, UniProt Q9NQC3 950-1018)
T10 construct: also called AmNg B4C; AP-B4C; not shown: alkaline phosphatase (AP), vector pcAP6
T10 sequence: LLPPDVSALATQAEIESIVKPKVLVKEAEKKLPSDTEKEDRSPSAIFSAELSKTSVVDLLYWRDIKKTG

B1: AP fusion protein with the B4C fragment of Amino-Nogo-A fused directly to Nogo-66 (ligand)
chain: LLPPDVSALATQAEIESIVKPKVLVKEAEKKLPSDTEKEDRSPSAIFSAELSKTSVVDLLYWRDIKKTGRIYKGVIQAIQKSDEGHPFRAYLESEVAISEELVQKYSNSALGHVNCTIKELRRLFLVDDLVDSLK
notes: domain: Nogo-66; also called AP-B4C66; AP-B4C-66; not shown: alkaline phosphatase (AP), vector pcAP6
B2: NgR expressed on COS-7 cells (species not stated) (receptor)
chain: T1 sequence with A137D

How the values were obtained:
[1] = target: T1, human NgR1 alanine mutant 163; assay: AP-ligand binding, COS-7
[2] = target: T2, human NgR1 alanine mutant 133, 136; assay: AP-ligand binding, COS-7
[3] = target: T3, human NgR1 alanine mutant 158, 160; assay: AP-ligand binding, COS-7
[4] = target: T4, human NgR1 alanine mutant 182, 186; assay: AP-ligand binding, COS-7
[5] = target: T5, human NgR1 alanine mutant 232, 234; assay: AP-ligand binding, COS-7
[6] = target: T6, human NgR1 alanine mutant 82, 179; assay: AP-ligand binding, COS-7
[7] = target: T7, NgR expressed on COS-7 cells (species …); assay: AP-ligand binding to NgR-expressing COS-7 cells (Scatchard)
[8] = target: B1; assay: AP fusion on NgR-expressing COS-7 cells
Text: (§1) Several alkaline phosphatase (AP) fusion proteins containing various Nogo-A segments derived from regions between the amino terminus and the first hydrophobic segment were examined to identify the mechanism of Amino-Nogo-A action. To generate additional AP fusion proteins, human amino Nogo fragments were amplified and ligated to the pcAP6 vector digested with restriction enzymes EcoRI and XhoI as described (Fournier, A. E., et al., Nature 409:341-346 (2001)). Plasmids were then transfected into HEK293T cells and conditioned media were collected after 7 days. None of these fragments bind with high affinity to non-transfected COS-7 cells. […] This binding is saturable with a Kd indistinguishable from that for AP-Nogo-66 association with NgR (Table I). To better define the region responsible for Amino-Nogo interaction with NgR, a range of truncation mutants of Amino-Nogo were examined as AP fusion proteins.
(§2) Binding Kds for AP fused Amino-Nogo fragments were measured by applying conditioned media containing AP fusion protein to NgR expressing COS-7 cells. Bound AP was stained and measured.

[9] = target: T8, AP-fused Amino-Nogo fragment B (a.a. …); assay: AP fusion on NgR-expressing COS-7 cells
Text: as §1, §2

[10] = target: T9, AP-fused Amino-Nogo fragment B4 (a.a. …); assay: AP fusion on NgR-expressing COS-7 cells
Text: as §1, §2

[11] = target: T10, AP-fused Amino-Nogo fragment B4C (a.a. …); assay: AP fusion on NgR-expressing COS-7 cells
Text: as §1, §2

| binding result [1] | binding result [2] | binding result [3] | binding result [4] | binding result [5] | binding result [6] | Kd [7] [nM] | Kd [8] [nM] | Kd [9] [nM] | Kd [10] [nM] | Kd [11] [nM] | Binder |
| --- | --- | --- | --- | --- | --- | --- | --- | --- | --- | --- | --- |
| no binding | no binding | no binding | no binding | no binding | no binding | 0.42 |  |  |  |  | B1 |
|  |  |  |  |  |  |  | < 1 | 6.66 | 9.01 | 3.51 | B2 |
